This passage reports Kd results from publication PMC6013234.

The data set addresses T1, DENR (in DENR-MCTS1 complex, coexpressed);MCTS1 (in DENR-MCTS1 complex, coexpressed) (human;human) (UniProt O43583+Q9ULC4).
T1 sequence 1: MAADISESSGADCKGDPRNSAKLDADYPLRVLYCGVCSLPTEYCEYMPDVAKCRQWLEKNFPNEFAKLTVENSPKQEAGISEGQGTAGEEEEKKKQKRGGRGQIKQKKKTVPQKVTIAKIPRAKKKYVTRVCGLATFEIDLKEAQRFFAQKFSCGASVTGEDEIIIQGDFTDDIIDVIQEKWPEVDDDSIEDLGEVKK
T1 sequence 2: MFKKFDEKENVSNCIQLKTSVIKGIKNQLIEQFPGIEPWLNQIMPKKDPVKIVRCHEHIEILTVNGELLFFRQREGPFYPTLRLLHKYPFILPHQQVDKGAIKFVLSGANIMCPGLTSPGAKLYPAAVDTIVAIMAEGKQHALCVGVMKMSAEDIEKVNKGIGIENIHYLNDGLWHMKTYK
Nature of the data set: EMSA. As to conditions: Scatchard, 5 replicates; general value, per-tRNA Kd only in S3E' Fig; 50 mM Tris pH 7.5, 150 mM NaCl, 15 mM imidazole (protein eluted in 300 mM imidazole, 2 mM DTT added), protein 0.25-16 uM, RNA 1 uM (3 uM yeast tRNA mix), 30 min. Background: Mobility shift assays separate free from complexed probe on a gel.

In general, Kd refers to the concentration at which binding is half-saturated. Substance tRNA, species not specified in text yielded a Kd of 1500 nM.
